Results as given in the supplement of paper PMC10724198.
± gives the standard deviation of the averaged measurements.

The sequences below were run on Saccharomyces cerevisiae (assay: protein stability index of tFT-peptide fusion (C-terminal peptide) (PSI (0-1 scale)); higher = more stable (slower turnover)). Conditions: genetic background: wild type; temperature: 30 C.
Procedure: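 MPS profiling in S. cerevisiae of the yeast C-terminome library: the last 12 aa of each annotated ORF are fused to the C-terminus of a sfGFP-mCherry timer, after a GGGS linker. Cells are FACS-sorted into 8 mCherry/sfGFP bins and deep-sequenced. PSI runs from 0 (unstable) to 1 (stable); wild type and das1Δ backgrounds, two technical replicates each.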

Row | Sequence | protein stability index
1 | AKLSEGTSFRRK [RPS27A C-terminal 12 aa] | 0.681 ± 0.037
2 | AKNARPSKKRKF [DBP10 C-terminal 12 aa] | 0.6782 ± 0.0047
3 | AKPKYEKILIDN [RTC2 C-terminal 12 aa] | 0.666 ± 0.035
4 | AKRDILPSPVSV [LPP1 C-terminal 12 aa] | 0.646 ± 0.04
5 | ALKHGEKAFNIN [NEM1 C-terminal 12 aa] | 0.6766 ± 0.0023
6 | ALLDGFVTAAGY [DAK2 C-terminal 12 aa] | 0.728 ± 0.016
7 | AMLKPSSKEGSP [COQ10 C-terminal 12 aa] | 0.718 ± 0.0063
8 | ANESLEEDLNLD [YBR137W C-terminal 12 aa] | 0.661 ± 0.025
9 | ANKNDAISKKVE [ATG23 C-terminal 12 aa] | 0.763 ± 0.077
10 | AQQNYRLWLSSV [ATG41 C-terminal 12 aa] | 0.3264 ± 0.0023
11 | ARLLRFWDHIIR [SHU1 C-terminal 12 aa] | 0.686 ± 0.06
12 | ARTSDELQFTLP [MPT5 C-terminal 12 aa] | 0.6868 ± 0.0057
13 | ARVASQLGQKKK [PRO3 C-terminal 12 aa] | 0.684 ± 0.014
14 | ASPTCTPQNPCV [CAB4 C-terminal 12 aa] | 0.735 ± 0.062
15 | ASYIQSREICLV [GNT1 C-terminal 12 aa] | 0.5859 ± 0.0036
16 | ATGGKKTTFADE [RPA14 C-terminal 12 aa] | 0.667 ± 0.036
17 | ATTDQEGDIHLE [PRE10 C-terminal 12 aa] | 0.678 ± 0.038
18 | ATTNISVLQECV [VRL1 C-terminal 12 aa] | 0.642 ± 0.011
19 | AWVPPTEDDSDE [DPH5 C-terminal 12 aa] | 0.665 ± 0.0093
20 | AYLQYYSESPEN [DUG1 C-terminal 12 aa] | 0.724 ± 0.051
21 | CFFLRKENGKDE [YLR120W-A C-terminal 12 aa] | 0.687 ± 0.017

Row | Sequence | protein stability index
22 | CHLLFGTHKKTL [YBL071C-B C-terminal 12 aa] | 0.6921 ± 0.003
23 | CKQWEISNMLKK [CSI1 C-terminal 12 aa] | 0.664 ± 0.04
24 | CKYPTKDIPIFF [RAD17 C-terminal 12 aa] | 0.734 ± 0.013
25 | CLSLDFVVPRPK [SHR5 C-terminal 12 aa] | 0.697 ± 0.048
26 | CMRPANQEIYPL [YLR157W-D C-terminal 12 aa] | 0.681 ± 0.017
27 | CSGAAGKIYVCD [CDC40 C-terminal 12 aa] | 0.723 ± 0.01
28 | CTSCGYKFRTNN [RPA12 C-terminal 12 aa] | 0.2522 ± 0.002
29 | CTSLLKGERKKE [RRT8 C-terminal 12 aa] | 0.685 ± 0.012
30 | DAFEKAIEAVYA [ARG8 C-terminal 12 aa] | 0.558 ± 0.012
31 | DAFTDPRQYHLT [BUD19 C-terminal 12 aa] | 0.69 ± 0.0082
32 | DAHIYNKRSKPD [PHO80 C-terminal 12 aa] | 0.662 ± 0.04
33 | DDAKDSNNSSLR [WSC2 C-terminal 12 aa] | 0.724 ± 0.0081
34 | DDAVNCNTSNCL [ZRC1 C-terminal 12 aa] | 0.698 ± 0.017
35 | DDEEATAMFKLE [IES1 C-terminal 12 aa] | 0.6754 ± 0.0028
36 | DDNEPDEEANRA [RXT2 C-terminal 12 aa] | 0.6656 ± 0.0043
37 | DDTLERAGRIKN [FAD1 C-terminal 12 aa] | 0.709 ± 0.019
38 | DECFCLARHEND [TDP1 C-terminal 12 aa] | 0.708 ± 0.023
39 | DEKTLDSIGNSL [VCX1 C-terminal 12 aa] | 0.696 ± 0.013
40 | DENDKVIAIKVV [VPS25 C-terminal 12 aa] | 0.525 ± 0.011
41 | DGFSVPITTFQT [CDC15 C-terminal 12 aa] | 0.709 ± 0.045
42 | DHLHNLAQYWRT [VPS34 C-terminal 12 aa] | 0.703 ± 0.038

Row | Sequence | protein stability index
43 | DIIKQGVNDIIV [ARD1 C-terminal 12 aa] | 0.717 ± 0.033
44 | DIISAFEEYKNA [SEC3 C-terminal 12 aa] | 0.685 ± 0.026
45 | DLEEAANKAQPQ [YLR257W C-terminal 12 aa] | 0.7125 ± 0.0015
46 | DLESLFKEKLSI [ALA1 C-terminal 12 aa] | 0.705 ± 0.02
47 | DLEVKLKKHKKN [TRZ1 C-terminal 12 aa] | 0.676 ± 0.05
48 | DLVKAAAGSDNE [RRP15 C-terminal 12 aa] | 0.675 ± 0.018
49 | DLVKASSTLNVS [SDL1 C-terminal 12 aa] | 0.672 ± 0.0084
50 | DMGKNLLQNKKF [ERG2 C-terminal 12 aa] | 0.695 ± 0.012
51 | DNDDDAGAVPTS [CDC13 C-terminal 12 aa] | 0.684 ± 0.011
52 | DPKLYFDATILS [TDA3 C-terminal 12 aa] | 0.691 ± 0.013
53 | DSQDMERMDSDS [YLR076C C-terminal 12 aa] | 0.745 ± 0.11
54 | DSQHKHDYSHSG [DCK1 C-terminal 12 aa] | 0.715 ± 0.035
55 | DTFPRWEGIKSK [PAD1 C-terminal 12 aa] | 0.6968 ± 0.0043
56 | DVEDVERVSKKI [CDC34 C-terminal 12 aa] | 0.67 ± 0.032
57 | DWESNQAKWIYE [YNK1 C-terminal 12 aa] | 0.718 ± 0.029
58 | DYKTKRNPSVLH [ISU2 C-terminal 12 aa] | 0.7106 ± 0.0056
59 | DYSRRVLRLMNE [WSC4 C-terminal 12 aa] | 0.5834 ± 0.0049
60 | DYWRKRGISSVY [ECM38 C-terminal 12 aa] | 0.72719 ± 0.0003
61 | DYYFRTGVKRLQ [ARP10 C-terminal 12 aa] | 0.732 ± 0.044
62 | EAETPGIIDKHQ [SIS2 C-terminal 12 aa] | 0.677 ± 0.044
63 | EALPPCLQIFRP [YDR354C-A C-terminal 12 aa] | 0.6739 ± 0.0039

Row | Sequence | protein stability index
64 | EAQLSCSEESLA [COS1 C-terminal 12 aa] | 0.683 ± 0.024
65 | EASEPFKTFKNT [MMS22 C-terminal 12 aa] | 0.696 ± 0.0087
66 | EDDFGPKPKFFI [SWE1 C-terminal 12 aa] | 0.683 ± 0.039
67 | EEEEEEGKEGDA [SCT1 C-terminal 12 aa] | 0.697 ± 0.0061
68 | EEKKKQEEGHSN [MNN4 C-terminal 12 aa] | 0.663 ± 0.03
69 | EFAKCEFETPAV [CKB1 C-terminal 12 aa] | 0.74 ± 0.0048
70 | EFDLADDRRYDI [TPO5 C-terminal 12 aa] | 0.682 ± 0.011
71 | EGIFPANYVELV [LSB3 C-terminal 12 aa] | 0.678 ± 0.037
72 | EGPVTIILDSDQ [DTD1 C-terminal 12 aa] | 0.7015 ± 0.0042
73 | EKKFKEILNIQW [PET112 C-terminal 12 aa] | 0.722 ± 0.01
74 | EKKYSNNTNAIQ [CTI6 C-terminal 12 aa] | 0.657 ± 0.024
75 | EKPEGKDTKTEE [CMK1 C-terminal 12 aa] | 0.684 ± 0.051
76 | EKQSSTASEKAA [THI7 C-terminal 12 aa] | 0.704 ± 0.029
77 | EKRLQKEIKSIE [IDP1 C-terminal 12 aa] | 0.673 ± 0.06
78 | ELDEIANSLENL [TPM2 C-terminal 12 aa] | 0.683 ± 0.01
79 | ELKRKDALSKKI [COA2 C-terminal 12 aa] | 0.75 ± 0.017
80 | ELLQSFSLVLTL [YKL153W C-terminal 12 aa] | 0.632 ± 0.024
81 | ELPAQKSTVISE [GEP7 C-terminal 12 aa] | 0.702 ± 0.039
82 | ELQDALNTELLF [VAC17 C-terminal 12 aa] | 0.699 ± 0.0099
83 | ELTFDVKLVSMK [FPR4 C-terminal 12 aa] | 0.687 ± 0.034
